From PMC10397247
Like-named read-outs stand apart in the source and are kept apart here.

T1: 4H3395-AA
T1 chain: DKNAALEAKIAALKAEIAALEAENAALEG

T2: 4H3410-AA
T2 chain: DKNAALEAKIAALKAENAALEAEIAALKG

T3: 4H3590-AA
T3 chain: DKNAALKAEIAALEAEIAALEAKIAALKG

T4: 4H3697-AA
T4 chain: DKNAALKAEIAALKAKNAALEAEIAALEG

T5: 4H3753-AA
T5 chain: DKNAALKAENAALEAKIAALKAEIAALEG

T6: 4H3865-AA
T6 chain: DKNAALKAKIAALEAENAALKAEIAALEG

T7: 4H458-AA
T7 chain: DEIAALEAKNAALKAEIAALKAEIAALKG

T8: 4H485-AA
T8 chain: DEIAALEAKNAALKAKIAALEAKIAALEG

T9: 4H536-AA
T9 chain: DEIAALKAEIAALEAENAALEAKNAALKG

T10: 4H570-AA
T10 chain: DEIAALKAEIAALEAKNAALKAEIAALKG

T11: 4H629-AA
T11 chain: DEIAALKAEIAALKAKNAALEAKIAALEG

T12: 4H710-AA
T12 chain: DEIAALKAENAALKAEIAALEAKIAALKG

T13: 4H745-AA
T13 chain: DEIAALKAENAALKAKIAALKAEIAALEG

T14: 4H797-AA
T14 chain: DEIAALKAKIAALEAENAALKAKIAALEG

T15: 4H850-AA
T15 chain: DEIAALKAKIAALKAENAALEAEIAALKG

T16: 4H891-AA
T16 chain: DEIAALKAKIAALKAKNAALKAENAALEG

T17: 4H909-AA
T17 chain: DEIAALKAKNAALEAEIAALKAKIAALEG

T18: 4H930-AA
T18 chain: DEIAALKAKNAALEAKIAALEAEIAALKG

T19: 4H94-AA
T19 chain: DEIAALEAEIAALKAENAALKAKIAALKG

T20: 4H850-bA
T20 chain: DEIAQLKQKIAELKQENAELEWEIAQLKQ

T21: 4H906-bA
T21 chain: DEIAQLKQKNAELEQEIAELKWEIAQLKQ

T22: 4H908-bN
T22 chain: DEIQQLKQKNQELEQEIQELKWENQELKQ

T23: 4H918-bN
T23 chain: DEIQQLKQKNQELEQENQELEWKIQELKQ

T24: 4H953-bN
T24 chain: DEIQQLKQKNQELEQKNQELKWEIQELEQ

T25: 4H967-bN
T25 chain: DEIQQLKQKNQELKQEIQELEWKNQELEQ

T26: 4H3165-AA
T26 chain: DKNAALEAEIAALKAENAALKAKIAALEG

T27: 4H3381-AA
T27 chain: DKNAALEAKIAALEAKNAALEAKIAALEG

T28: 4H428-AA
T28 chain: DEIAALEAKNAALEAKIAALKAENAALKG

T29: 4H478-AA
T29 chain: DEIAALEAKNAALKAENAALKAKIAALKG

T30: 4H497-AA
T30 chain: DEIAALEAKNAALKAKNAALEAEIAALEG

T31: 4H656-AA
T31 chain: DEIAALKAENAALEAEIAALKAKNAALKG

T32: 4H675-AA
T32 chain: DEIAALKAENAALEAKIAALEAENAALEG

T33: 4H971-AA
T33 chain: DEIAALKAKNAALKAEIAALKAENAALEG


What was measured:
4H3395-AA = molecular target: T1, 4H3395-AA; assay: two-hybrid library CCmax;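 further: natural log of median RNA to DNA barcode read ratio; higher means stronger binding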
4H3410-AA = molecular target: T2, 4H3410-AA; assay: two-hybrid library CCmax; details: mean of both orientations;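 further: natural log of median RNA to DNA barcode read ratio; higher means stronger binding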
4H3590-AA = molecular target: T3, 4H3590-AA; assay: two-hybrid library CCmax; details: mean of both orientations;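 further: natural log of median RNA to DNA barcode read ratio; higher means stronger binding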
4H3697-AA = molecular target: T4, 4H3697-AA; assay: two-hybrid library CCmax; details: mean of both orientations;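 further: natural log of median RNA to DNA barcode read ratio; higher means stronger binding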
4H3753-AA = molecular target: T5, 4H3753-AA; assay: two-hybrid library CCmax; details: mean of both orientations
4H3865-AA = molecular target: T6, 4H3865-AA; assay: two-hybrid library CCmax; details: mean of both orientations
4H458-AA = molecular target: T7, 4H458-AA; assay: two-hybrid library CCmax; details: mean of both orientations
4H485-AA = molecular target: T8, 4H485-AA; assay: two-hybrid library CCmax; details: mean of both orientations
4H536-AA = molecular target: T9, 4H536-AA; assay: two-hybrid library CCmax; details: mean of both orientations
4H570-AA = molecular target: T10, 4H570-AA; assay: two-hybrid library CCmax; details: mean of both orientations
4H629-AA = molecular target: T11, 4H629-AA; assay: two-hybrid library CCmax; details: mean of both orientations
4H710-AA = molecular target: T12, 4H710-AA; assay: two-hybrid library CCmax; details: mean of both orientations
4H745-AA = molecular target: T13, 4H745-AA; assay: two-hybrid library CCmax; details: mean of both orientations
4H797-AA = molecular target: T14, 4H797-AA; assay: two-hybrid library CCmax; details: mean of both orientations
4H850-AA = molecular target: T15, 4H850-AA; assay: two-hybrid library CCmax; details: mean of both orientations
4H891-AA = molecular target: T16, 4H891-AA; assay: two-hybrid library CCmax; details: mean of both orientations
4H909-AA = molecular target: T17, 4H909-AA; assay: two-hybrid library CCmax; details: mean of both orientations
4H930-AA = molecular target: T18, 4H930-AA; assay: two-hybrid library CCmax; details: mean of both orientations
4H94-AA = molecular target: T19, 4H94-AA; assay: two-hybrid library CCmax; details: mean of both orientations
4H850-bA = molecular target: T20, 4H850-bA; assay: two-hybrid library CCNG1
4H906-bA = molecular target: T21, 4H906-bA; assay: two-hybrid library CCNG1
4H908-bN = molecular target: T22, 4H908-bN; assay: two-hybrid library CCNG1
4H918-bN = molecular target: T23, 4H918-bN; assay: two-hybrid library CCNG1
4H953-bN = molecular target: T24, 4H953-bN; assay: two-hybrid library CCNG1
4H967-bN = molecular target: T25, 4H967-bN; assay: two-hybrid library CCNG1
4H3165-AA = molecular target: T26, 4H3165-AA; assay: two-hybrid library CCmax
4H3381-AA = molecular target: T27, 4H3381-AA; assay: two-hybrid library CCmax; details: mean of both orientations
4H428-AA = molecular target: T28, 4H428-AA; assay: two-hybrid library CCmax
4H478-AA = molecular target: T29, 4H478-AA; assay: two-hybrid library CCmax; details: mean of both orientations
4H497-AA = molecular target: T30, 4H497-AA; assay: two-hybrid library CCmax; details: mean of both orientations
4H656-AA = molecular target: T31, 4H656-AA; assay: two-hybrid library CCmax; details: mean of both orientations
4H675-AA = molecular target: T32, 4H675-AA; assay: two-hybrid library CCmax; details: mean of both orientations
4H971-AA = molecular target: T33, 4H971-AA; assay: two-hybrid library CCmax; details: mean of both orientations

interaction score (4H3410-AA) | interaction score (4H3590-AA) | interaction score (4H3697-AA) | interaction score (4H3753-AA) | interaction score (4H3865-AA) | interaction score (4H458-AA) | interaction score (4H485-AA) | interaction score (4H536-AA) | interaction score (4H570-AA) | interaction score (4H629-AA) | interaction score (4H710-AA) | interaction score (4H745-AA) | interaction score (4H797-AA) | interaction score (4H850-AA) | interaction score (4H891-AA) | interaction score (4H909-AA) | interaction score (4H930-AA) | interaction score (4H94-AA) | Binder | further results
-1.06 | 0.738 | -1.79 | -0.825 | -1.79 | -1.44 | -1.67 | -1.14 | -0.846 | -1.64 | -1.32 | -1.46 | -1.43 | -1.34 | 0.496 | -1.83 | -1.33 | -0.52 | DKNAALEAKIAALKAEIAALEAENAALEG [4H3395-AA] | interaction score (4H3395-AA): 0.0829
– | – | – | – | – | – | – | – | – | – | – | – | – | – | – | – | – | – | DEIAQLKQKIAELKQENAELEWEIAQLKQ [4H850-bA] | interaction score (4H850-bA): 0.428; interaction score (4H906-bA): -1.27
– | – | – | – | – | – | – | – | – | – | – | – | – | – | – | – | – | – | DEIQQLKQKNQELEQEIQELKWENQELKQ [4H908-bN] | interaction score (4H908-bN): -0.618; interaction score (4H918-bN): -0.988; interaction score (4H953-bN): -0.77; interaction score (4H967-bN): -0.23
-0.394 | -0.944 | -0.699 | -1.55 | -0.353 | -1.24 | -1.05 | -1.27 | -1.57 | -0.975 | -1.07 | -0.851 | -0.547 | -0.685 | -1.63 | -1.43 | -1.79 | 0.996 | DKNAALEAEIAALKAENAALKAKIAALEG [4H3165-AA] | interaction score (4H3165-AA): 1.88; interaction score (4H3381-AA): -1.72; interaction score (4H3395-AA; mean of both orientations): -1.37
– | – | – | – | – | – | – | – | – | – | – | – | – | – | – | – | – | – | DEIAALEAKNAALEAKIAALKAENAALKG [4H428-AA] | interaction score (4H428-AA): 0.174; interaction score (4H478-AA): -1.71; interaction score (4H497-AA): -1.47; interaction score (4H656-AA): -0.675; interaction score (4H675-AA): 0.166; interaction score (4H971-AA): -0.222
